The chains are these.
B1: yNap1(74-417) (domain or fragment)
chain: LGSLVGQDSGYVGGLPKNVKEKLLSLKTLQSELFEVEKEFQVEMFELENKFLQKYKPIWEQRSRIISGQEQPKPEQIAKGQEIVESLNETELLVDEEEKAQNDSEEEQVKGIPSFWLTALENLPIVCDTITDRDAEVLEYLQDIGLEYLTDGRPGFKLLFRFDSSANPFFTNDILCKTYFYQKELGYSGDFIYDHAEGCEISWKDNAHNVTVDLEMRKQRNKTTKQVRTIEKITPIESFFNFFDPPKIQNEDQDEELEEDLEERLALDYSIGEQLKDKLIPRAVDWFTGAALEFEFEEDEEEADEDEDEEEDDDHGLEDDDGESAEEQDDFAGRPEQAPECKQS
B2: yNap1(74-365) (domain or fragment)
chain: LGSLVGQDSGYVGGLPKNVKEKLLSLKTLQSELFEVEKEFQVEMFELENKFLQKYKPIWEQRSRIISGQEQPKPEQIAKGQEIVESLNETELLVDEEEKAQNDSEEEQVKGIPSFWLTALENLPIVCDTITDRDAEVLEYLQDIGLEYLTDGRPGFKLLFRFDSSANPFFTNDILCKTYFYQKELGYSGDFIYDHAEGCEISWKDNAHNVTVDLEMRKQRNKTTKQVRTIEKITPIESFFNFFDPPKIQNEDQDEELEEDLEERLALDYSIGEQLKDKLIPRAVDWFTGAAL
B3: yNap1(1-365) (domain or fragment)
chain: MSDPIRTKPKSSMQIDNAPTPHNTPASVLNPSYLKNGNPVRAQAQEQDDKIGTINEEDILANQPLLLQSIQDRLGSLVGQDSGYVGGLPKNVKEKLLSLKTLQSELFEVEKEFQVEMFELENKFLQKYKPIWEQRSRIISGQEQPKPEQIAKGQEIVESLNETELLVDEEEKAQNDSEEEQVKGIPSFWLTALENLPIVCDTITDRDAEVLEYLQDIGLEYLTDGRPGFKLLFRFDSSANPFFTNDILCKTYFYQKELGYSGDFIYDHAEGCEISWKDNAHNVTVDLEMRKQRNKTTKQVRTIEKITPIESFFNFFDPPKIQNEDQDEELEEDLEERLALDYSIGEQLKDKLIPRAVDWFTGAAL

Our source for the Kd and Kd app (yNap1 counted as dimer) values is article PMC2583301.

The assay deals with H2A/H2B(T112C) dimer, H2B labelled with Alexa dye (Xenopus laevis) (UniProt P06897). The experiment in a line: other fluorescence titration.
In general, Kd refers to the equilibrium constant for the complex coming apart. B1 came in with a Kd of 1.7 nM and a Kd app (yNap1 counted as dimer) of 0.9 nM.
The matching figures for B2: 10 nM and 5.4 nM.
With B3, the Kd came out at 2.1 nM and the Kd app (yNap1 counted as dimer) was found to be 1 nM.
